The text below walks through data of patent publication US5558865.

Test [1] concerns the target peptide of amino acids 302-316 of HIV-1MN gp120 (HIV-1 strain MN). As to the kind of experiment: peptide ELISA, 500 ng MIgG.
Test [2] addresses peptide of amino acids 312-326 of HIV-1MN gp120 (HIV-1 strain MN). As to the kind of experiment: peptide ELISA, 500 ng MIgG.
The target in test [3] is peptide of amino acids 322-336 of HIV-1MN gp120 (HIV-1 strain MN). As to the kind of experiment: peptide ELISA, 500 ng MIgG.
Test [4] concerns the target native HIV-1IIIB gp120 (HIV-1 strain IIIB) (UniProt P04578).
Test [5] deals with native HIV-1MN gp120 (HIV-1 strain MN) (UniProt P05877).
The target in test [6] is native HIV-1IIIB gp120 (HIV-1 strain IIIB) (UniProt P04578). The source holds these as a separate data set.
Test [7] deals with native HIV-1MN gp120 (HIV-1 strain MN) (UniProt P05877). The source holds these as a separate data set.
The target in test [8] is gp120 of HIV-1 strain RF (HIV-1 strain RF).

monoclonal antibody NM-01, sequence (VH): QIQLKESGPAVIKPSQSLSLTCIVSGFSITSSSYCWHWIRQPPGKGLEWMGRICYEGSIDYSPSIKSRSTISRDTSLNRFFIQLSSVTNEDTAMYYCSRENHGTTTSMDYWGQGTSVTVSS
monoclonal antibody NM-01, sequence (VL): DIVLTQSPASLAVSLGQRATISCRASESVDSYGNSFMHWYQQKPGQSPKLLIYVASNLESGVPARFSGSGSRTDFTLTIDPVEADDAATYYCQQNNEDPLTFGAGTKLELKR

Consider “mouse IgG (polyclonal serum or antibody)”, for which the optical density at 650 nm in test [1] turned out to be 0.049 OD 650 nm; in test [2], 0.043 OD 650 nm; in test [3] it was 0.042 OD 650 nm.
In test [4], monoclonal antibody NM-01 had an ID50, syncytium formation of IIIB-infected H9 cells with C8166 cells of 3 µg/mL. Also, the ID50, syncytium formation of MN-infected H9 cells with C8166 cells in test [5] was determined as 2 µg/mL. The same substance registered an ID50, MT-2 assay (cell viability by MTT), live IIIB virus in test [6] of 0.1 µg/mL. Further, in test [7], the ID50, MT-2 assay (cell viability by MTT), live MN virus stood at 2 µg/mL. The same substance displayed an ID50, syncytium formation of RF-infected cells in test [8] of 4 µg/mL.
